How the values were obtained:
[1] = biological target: T1, TALE1-NK repressor (Xanthomonas (engineered), UniProt P14727 SEQ:1-983); test: cell_activity; endogenous CACNA1C mRNA; details: tags: SID
T1 chain: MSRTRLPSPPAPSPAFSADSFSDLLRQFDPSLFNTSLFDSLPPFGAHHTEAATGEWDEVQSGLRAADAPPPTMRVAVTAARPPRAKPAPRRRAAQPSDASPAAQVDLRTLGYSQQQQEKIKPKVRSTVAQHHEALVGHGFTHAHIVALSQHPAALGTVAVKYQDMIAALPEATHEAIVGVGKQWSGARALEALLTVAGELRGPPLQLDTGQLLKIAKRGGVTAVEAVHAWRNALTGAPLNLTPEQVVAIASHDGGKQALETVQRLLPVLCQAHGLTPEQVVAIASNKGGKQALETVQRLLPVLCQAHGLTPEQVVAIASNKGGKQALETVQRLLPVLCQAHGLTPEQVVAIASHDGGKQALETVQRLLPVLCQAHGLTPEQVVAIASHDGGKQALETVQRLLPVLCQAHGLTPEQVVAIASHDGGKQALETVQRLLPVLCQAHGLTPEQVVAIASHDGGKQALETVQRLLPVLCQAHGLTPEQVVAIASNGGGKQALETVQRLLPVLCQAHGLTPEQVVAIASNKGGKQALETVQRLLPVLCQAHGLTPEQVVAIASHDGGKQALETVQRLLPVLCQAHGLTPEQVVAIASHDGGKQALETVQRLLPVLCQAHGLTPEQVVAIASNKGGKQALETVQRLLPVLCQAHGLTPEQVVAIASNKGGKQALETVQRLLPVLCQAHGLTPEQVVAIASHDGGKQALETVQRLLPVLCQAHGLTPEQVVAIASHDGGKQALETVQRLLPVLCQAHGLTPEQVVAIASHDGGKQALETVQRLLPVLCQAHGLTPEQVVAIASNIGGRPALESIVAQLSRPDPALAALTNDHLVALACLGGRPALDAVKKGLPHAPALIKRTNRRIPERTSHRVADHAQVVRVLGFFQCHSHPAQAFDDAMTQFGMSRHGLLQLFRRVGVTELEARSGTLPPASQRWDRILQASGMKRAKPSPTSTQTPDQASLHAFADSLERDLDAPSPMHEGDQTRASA

[2] = biological target: T2, TALE1-NN repressor (Xanthomonas (engineered), UniProt P14727 SEQ:1-983); test: cell_activity; endogenous CACNA1C mRNA; details: tags: SID
T2 chain: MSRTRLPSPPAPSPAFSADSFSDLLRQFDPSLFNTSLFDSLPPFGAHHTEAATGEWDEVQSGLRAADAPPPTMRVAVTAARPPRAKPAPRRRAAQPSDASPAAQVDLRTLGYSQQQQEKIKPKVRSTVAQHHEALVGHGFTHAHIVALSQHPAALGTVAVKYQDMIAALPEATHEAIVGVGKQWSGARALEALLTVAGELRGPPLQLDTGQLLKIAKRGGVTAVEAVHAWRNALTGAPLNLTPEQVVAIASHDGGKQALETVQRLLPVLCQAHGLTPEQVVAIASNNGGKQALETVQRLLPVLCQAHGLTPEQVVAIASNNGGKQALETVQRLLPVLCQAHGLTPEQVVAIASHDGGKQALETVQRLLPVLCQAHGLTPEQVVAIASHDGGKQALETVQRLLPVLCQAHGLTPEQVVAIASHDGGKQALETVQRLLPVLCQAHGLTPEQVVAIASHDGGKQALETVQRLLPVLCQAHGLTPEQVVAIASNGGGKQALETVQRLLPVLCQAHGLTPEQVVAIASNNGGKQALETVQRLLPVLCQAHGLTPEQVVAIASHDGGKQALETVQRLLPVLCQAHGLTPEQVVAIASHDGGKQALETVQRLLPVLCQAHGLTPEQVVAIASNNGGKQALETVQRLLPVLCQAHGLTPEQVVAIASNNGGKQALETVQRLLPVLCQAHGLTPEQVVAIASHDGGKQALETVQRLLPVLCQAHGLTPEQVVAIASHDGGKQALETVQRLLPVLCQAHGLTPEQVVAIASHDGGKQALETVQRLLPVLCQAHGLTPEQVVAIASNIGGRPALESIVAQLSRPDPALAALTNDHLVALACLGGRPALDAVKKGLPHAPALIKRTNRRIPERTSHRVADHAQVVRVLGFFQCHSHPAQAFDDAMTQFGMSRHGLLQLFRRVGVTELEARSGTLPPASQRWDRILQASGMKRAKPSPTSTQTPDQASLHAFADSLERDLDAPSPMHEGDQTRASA

[3] = biological target: T3, TALE1-NH (CACNA1C site 1 activator) (Xanthomonas (engineered), UniProt P14727 SEQ:1-983); test: cell_activity; HEK 293FT, endogenous CACNA1C mRNA; reporter 1.9x that of NK; details: tags: VP64, 2A-GFP
T3 chain: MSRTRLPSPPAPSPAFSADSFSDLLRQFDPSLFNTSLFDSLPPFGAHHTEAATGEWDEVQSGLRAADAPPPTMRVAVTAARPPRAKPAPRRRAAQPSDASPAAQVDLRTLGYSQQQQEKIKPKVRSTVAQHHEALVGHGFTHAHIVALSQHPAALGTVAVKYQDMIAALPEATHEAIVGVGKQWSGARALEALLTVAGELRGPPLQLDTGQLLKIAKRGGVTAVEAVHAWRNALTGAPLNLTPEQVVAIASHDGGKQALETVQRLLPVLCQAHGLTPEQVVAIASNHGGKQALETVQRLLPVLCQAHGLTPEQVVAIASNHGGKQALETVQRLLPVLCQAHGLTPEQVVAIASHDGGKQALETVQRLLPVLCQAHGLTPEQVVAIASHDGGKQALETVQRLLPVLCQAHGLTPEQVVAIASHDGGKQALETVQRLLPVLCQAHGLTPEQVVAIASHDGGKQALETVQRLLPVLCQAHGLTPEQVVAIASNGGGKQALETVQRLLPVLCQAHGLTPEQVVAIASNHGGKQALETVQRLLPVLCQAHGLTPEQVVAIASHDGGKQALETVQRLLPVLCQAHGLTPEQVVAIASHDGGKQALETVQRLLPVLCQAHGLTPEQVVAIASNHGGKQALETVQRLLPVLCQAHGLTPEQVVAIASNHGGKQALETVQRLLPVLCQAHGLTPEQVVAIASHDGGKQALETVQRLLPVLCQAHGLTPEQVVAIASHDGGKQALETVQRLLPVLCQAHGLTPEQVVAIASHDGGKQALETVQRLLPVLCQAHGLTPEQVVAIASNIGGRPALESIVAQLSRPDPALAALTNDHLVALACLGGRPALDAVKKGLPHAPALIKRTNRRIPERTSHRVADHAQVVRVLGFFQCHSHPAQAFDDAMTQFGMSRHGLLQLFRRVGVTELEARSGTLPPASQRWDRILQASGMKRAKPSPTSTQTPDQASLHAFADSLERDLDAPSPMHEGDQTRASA

B1: CACNA1C site 1 (dsDNA)
DNA 1: TCGGCCCCTGCCGGCCCA
DNA 2: TGGGCCGGCAGGGGCCGA
Binder B1 has an activity [1] of about 2 fold repression, an activity [2] of about 4 fold repression and an activity [3] of about 5 fold activation.

Reference: patent US20140271602, “NUCLEOTIDE-SPECIFIC RECOGNITION SEQUENCES FOR DESIGNER TAL EFFECTORS” (THE BROAD INSTITUTE INC., published 2014)
